Test results published in US20220119448A1 (ZHEJIANG DOER BIOLOGICS, published 2022).

What was measured:
[1] = biological target: GLP-2R (GLP-2 receptor) on GLP-2R/Luc-CHO cells; assay: cell-based or functional assay
[2] = biological target: T1, VEGF (UniProt P15692-4 27-191, limits assumed, biotin-labelled (Sulfo-NHS biotin, molar ratio 2:1) in the BLI assay; unlabelled in the competition ELISA); assay: BLI (Octet-QK), biotin-VEGF on SA probe; average of 3 repeats (STD 0.05)
T1 construct: also called biotin-labeled VEGF
Source text: (§1) The binding affinities of the fusion proteins were detected using BLI (Bio-layer inteferometry, ForteBio). […] Excess biotin not involved in labeling was removed by dialysis. […] The buffer used in the experiment was PBS (containing 0.1% Tween-20). […] Based on the program settings, the fusion proteins were bound, and then dissociated in PBST solution, to obtain the experimental curves. According to the result analysis software of Octet-QK, local full was used to fit the curves of the experimental results, then kon, kdis and Kd were determined.

[3] = biological target: T1, VEGF; assay: BLI (Octet-QK), biotin-VEGF on SA probe; repeat 3
Source text: as §1

[4] = biological target: T1, VEGF; assay: BLI (Octet-QK), biotin-VEGF on SA probe; repeat 2
Source text: as §1

[5] = biological target: T1, VEGF; assay: competition ELISA: sample pre-mixed with VEGF, mixture put on a plate coated with VEGF Receptor 2 (KDR), bound VEGF detected with mouse anti-human VEGF antibody, OD450; blocked ligand-receptor pair VEGF/KDR
Description: (§2) The plate was then blocked with 1% BSA/TBS and placed at 37° C. for 1 h; 1% BSA/TBS was added to the plate, 200 μL per well, and placed at 37° C. for 2 h.
(§3) Then, the stock solutions were diluted by 3 times to a total of 11 concentrations. […] The KDR-coated ELISA plate was washed twice and pat-dried. The mixture was successively transferred to the ELISA plate and placed at 37° C. for 1 h, then the plate was washed for 6 times. […] The plate was placed at 37° C. for 1 h and washed for 6 times. Then, goat anti-rat secondary antibody (Pierce, 31432, QA1969921) diluted at 1:1000 was added, 50 μL per well. The plate was placed at 37° C. for 1 h and washed for 6 times. Color developing solution was added after reaction, and the plated was incubated at 37° C. for 15 min. Stop buffer was added to terminate the color reaction. OD450 values were read on a microplate reader.

[6] = biological target: T1, VEGF; assay: competition ELISA: inhibition of VEGF binding to plate-coated VEGF Receptor 2 (KDR)
Description: as §2, §3

[7] = biological target: T1, VEGF; assay: BLI (Octet-QK), biotin-VEGF on SA probe; repeat 1
Source text: as §1

[8] = biological target: T1, VEGF; assay: BLI (Octet-QK), biotin-VEGF on SA probe; average of 3 repeats (STD 0.10)
Source text: as §1

T1 sequence (P15692 other isoform, or with tags, fused parts or gaps limits assumed): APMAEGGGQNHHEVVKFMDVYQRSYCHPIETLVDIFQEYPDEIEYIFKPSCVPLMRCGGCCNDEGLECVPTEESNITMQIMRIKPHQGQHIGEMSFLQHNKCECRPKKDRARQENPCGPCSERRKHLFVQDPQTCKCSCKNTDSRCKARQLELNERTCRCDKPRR

in vitro cytological activity, EC50 (luciferase reporter, GLP-2R/Luc-CHO cells) [1]	Kd [2]	Kd [3]	Kd [4]	IC50 (read off the curve) [5]	IC50 [6]	Kd [7]	Kd [8]	Binder
279 nM	–	–	–	–	–	–	–	GLP2G-PU69x45 (ligand) HGDGSFSDEMNTILDNLAARDFINWLIQTKITDAPPEAPEAPEAAPAAPEPAEAPPEAPEAPEAAPAAPEPAEAPPEAPEAPEAAPAAPEPAEAPPEAPEAPEAAPAAPEPAEAPPEAPEAPEAAPAAPEPAEAPPEAPEAPEAAPAAPEPAEAPPEAPEAPEAAPAAPEPAEAPPEAPEAPEAAPAAPEPAEAPPEAPEAPEAAPAAPEPAEAPPEAPEAPEAAPAAPEPAEAPPEAPEAPEAAPAAPEPAEAPPEAPEAPEAAPAAPEPAEAPPEAPEAPEAAPAAPEPAEAPPEAPEAPEAAPAAPEPAEAPPEAPEAPEAAPAAPEPAEAPPEAPEAPEAAPAAPEPAEAPPEAPEAPEAAPAAPEPAEAPPEAPEAPEAAPAAPEPAEAPPEAPEAPEAAPAAPEPAEAPPEAPEAPEAAPAAPEPAEAPPEAPEAPEAAPAAPEPAEAPPEAPEAPEAAPAAPEPAEAPPEAPEAPEAAPAAPEPAEAPPEAPEAPEAAPAAPEPAEAPPEAPEAPEAAPAAPEPAEAPPEAPEAPEAAPAAPEPAEAPPEAPEAPEAAPAAPEPAEAPPEAPEAPEAAPAAPEPAEAPPEAPEAPEAAPAAPEPAEAPPEAPEAPEAAPAAPEPAEAPPEAPEAPEAAPAAPEPAEAPPEAPEAPEAAPAAPEPAEAPPEAPEAPEAAPAAPEPAEAPPEAPEAPEAAPAAPEPAEAPPEAPEAPEAAPAAPEPAEAPPEAPEAPEAAPAAPEPAEAPPEAPEAPEAAPAAPEPAEAPPEAPEAPEAAPAAPEPAEAPPEAPEAPEAAPAAPEPAEAPPEAPEAPEAAPAAPEPAEAPPEAPEAPEAAPAAPEPAEAPPEAPEAPEAAPAAPEPAEAPPEAPEAPEAAPAAPEPAEAPPEAPEAPEAAPAAPEPAEAPPEAPEAPEAAPAAPEPAE
299 nM	–	–	–	–	–	–	–	GLP2G-PU141x47 (ligand) HGDGSFSDEMNTILDNLAARDFINWLIQTKITDAPAAPPEEAAAEPPAAEAAPAPAAPPEEAAAEPPAAEAAPAPAAPPEEAAAEPPAAEAAPAPAAPPEEAAAEPPAAEAAPAPAAPPEEAAAEPPAAEAAPAPAAPPEEAAAEPPAAEAAPAPAAPPEEAAAEPPAAEAAPAPAAPPEEAAAEPPAAEAAPAPAAPPEEAAAEPPAAEAAPAPAAPPEEAAAEPPAAEAAPAPAAPPEEAAAEPPAAEAAPAPAAPPEEAAAEPPAAEAAPAPAAPPEEAAAEPPAAEAAPAPAAPPEEAAAEPPAAEAAPAPAAPPEEAAAEPPAAEAAPAPAAPPEEAAAEPPAAEAAPAPAAPPEEAAAEPPAAEAAPAPAAPPEEAAAEPPAAEAAPAPAAPPEEAAAEPPAAEAAPAPAAPPEEAAAEPPAAEAAPAPAAPPEEAAAEPPAAEAAPAPAAPPEEAAAEPPAAEAAPAPAAPPEEAAAEPPAAEAAPAPAAPPEEAAAEPPAAEAAPAPAAPPEEAAAEPPAAEAAPAPAAPPEEAAAEPPAAEAAPAPAAPPEEAAAEPPAAEAAPAPAAPPEEAAAEPPAAEAAPAPAAPPEEAAAEPPAAEAAPAPAAPPEEAAAEPPAAEAAPAPAAPPEEAAAEPPAAEAAPAPAAPPEEAAAEPPAAEAAPAPAAPPEEAAAEPPAAEAAPAPAAPPEEAAAEPPAAEAAPAPAAPPEEAAAEPPAAEAAPAPAAPPEEAAAEPPAAEAAPAPAAPPEEAAAEPPAAEAAPAPAAPPEEAAAEPPAAEAAPAPAAPPEEAAAEPPAAEAAPAPAAPPEEAAAEPPAAEAAPAPAAPPEEAAAEPPAAEAAPAPAAPPEEAAAEPPAAEAAPAPAAPPEEAAAEPPAAEAAPAPAAPPEEAAAEPPAAEAAPAPAAPPEEAAAEPPAAEAAPAPAAPPEEAAAEPPAAEAAPAPAAPPEEAAAEPPAAEAAP

Continued, binder first:

Binder	in vitro cytological activity, EC50 (luciferase reporter, GLP-2R/Luc-CHO cells) [1]	Kd [2]	Kd [3]	Kd [4]	IC50 (read off the curve) [5]	IC50 [6]	Kd [7]	Kd [8]
PU73x49-ARVEGF (designed binder, also called PU-ARVEGF fusion protein) APAEAPAAAEEAPPAEPAPEAPAEAPAAAEEAPPAEPAPEAPAEAPAAAEEAPPAEPAPEAPAEAPAAAEEAPPAEPAPEAPAEAPAAAEEAPPAEPAPEAPAEAPAAAEEAPPAEPAPEAPAEAPAAAEEAPPAEPAPEAPAEAPAAAEEAPPAEPAPEAPAEAPAAAEEAPPAEPAPEAPAEAPAAAEEAPPAEPAPEAPAEAPAAAEEAPPAEPAPEAPAEAPAAAEEAPPAEPAPEAPAEAPAAAEEAPPAEPAPEAPAEAPAAAEEAPPAEPAPEAPAEAPAAAEEAPPAEPAPEAPAEAPAAAEEAPPAEPAPEAPAEAPAAAEEAPPAEPAPEAPAEAPAAAEEAPPAEPAPEAPAEAPAAAEEAPPAEPAPEAPAEAPAAAEEAPPAEPAPEAPAEAPAAAEEAPPAEPAPEAPAEAPAAAEEAPPAEPAPEAPAEAPAAAEEAPPAEPAPEAPAEAPAAAEEAPPAEPAPEAPAEAPAAAEEAPPAEPAPEAPAEAPAAAEEAPPAEPAPEAPAEAPAAAEEAPPAEPAPEAPAEAPAAAEEAPPAEPAPEAPAEAPAAAEEAPPAEPAPEAPAEAPAAAEEAPPAEPAPEAPAEAPAAAEEAPPAEPAPEAPAEAPAAAEEAPPAEPAPEAPAEAPAAAEEAPPAEPAPEAPAEAPAAAEEAPPAEPAPEAPAEAPAAAEEAPPAEPAPEAPAEAPAAAEEAPPAEPAPEAPAEAPAAAEEAPPAEPAPEAPAEAPAAAEEAPPAEPAPEAPAEAPAAAEEAPPAEPAPEAPAEAPAAAEEAPPAEPAPEAPAEAPAAAEEAPPAEPAPEAPAEAPAAAEEAPPAEPAPEAPAEAPAAAEEAPPAEPAPEAPAEAPAAAEEAPPAEPAPEAPAEAPAAAEEAPPAEPAPEAPAEAPAAAEEAPPAEPAPEAPAEAPAAAEEAPPAEPAPEAPAEAPAAAEEAPPAEPAPEAPAEAPAAAEEAPPAEPAPEGSDLDKKLLEAARAGQDDEVRILMANGADVNARDSTGWTPLHLAAPWGHPEIVEVLLKNGADVNAADFQGWTPLHLAAAVGHLEIVEVLLKYGADVNAQDKFGKTAFDISIDNGNEDLAEILQKAA	–	0.64 nM	0.7 nM	0.61 nM	~0.3 nM	0.55 nM	0.62 nM	–
GLP2G-PU98x43 (ligand) HGDGSFSDEMNTILDNLAARDFINWLIQTKITDAEPAAPAPAEPAAPAPEAPAAEPAAPAPAEPAAPAPEAPAAEPAAPAPAEPAAPAPEAPAAEPAAPAPAEPAAPAPEAPAAEPAAPAPAEPAAPAPEAPAAEPAAPAPAEPAAPAPEAPAAEPAAPAPAEPAAPAPEAPAAEPAAPAPAEPAAPAPEAPAAEPAAPAPAEPAAPAPEAPAAEPAAPAPAEPAAPAPEAPAAEPAAPAPAEPAAPAPEAPAAEPAAPAPAEPAAPAPEAPAAEPAAPAPAEPAAPAPEAPAAEPAAPAPAEPAAPAPEAPAAEPAAPAPAEPAAPAPEAPAAEPAAPAPAEPAAPAPEAPAAEPAAPAPAEPAAPAPEAPAAEPAAPAPAEPAAPAPEAPAAEPAAPAPAEPAAPAPEAPAAEPAAPAPAEPAAPAPEAPAAEPAAPAPAEPAAPAPEAPAAEPAAPAPAEPAAPAPEAPAAEPAAPAPAEPAAPAPEAPAAEPAAPAPAEPAAPAPEAPAAEPAAPAPAEPAAPAPEAPAAEPAAPAPAEPAAPAPEAPAAEPAAPAPAEPAAPAPEAPAAEPAAPAPAEPAAPAPEAPAAEPAAPAPAEPAAPAPEAPAAEPAAPAPAEPAAPAPEAPAAEPAAPAPAEPAAPAPEAPAAEPAAPAPAEPAAPAPEAPAAEPAAPAPAEPAAPAPEAPAAEPAAPAPAEPAAPAPEAPAAEPAAPAPAEPAAPAPEAPAAEPAAPAPAEPAAPAPEAPAAEPAAPAPAEPAAPAPEAPAAEPAAPAPAEPAAPAPEAPAAEPAAPAPAEPAAPAPEAPAAEPAAPAPAEPAAPAPEAPAAEPAAPAPAEPAAPAPEAPAAEPAAPAPAEPAAPAPEAPAAEPAAPAPAEPAAPAPEAPA	311 nM	–	–	–	–	–	–	–
ankyrin repeat protein binding to VEGF (ARVEGF) (designed binder, Its preparation and any tag are not described) GSDLDKKLLEAARAGQDDEVRILMANGADVNARDSTGWTPLHLAAPWGHPEIVEVLLKNGADVNAADFQGWTPLHLAAAVGHLEIVEVLLKYGADVNAQDKFGKTAFDISIDNGNEDLAEILQKAA	–	–	0.77 nM	0.69 nM	~0.3 nM	0.65 nM	0.58 nM	0.68 nM
